Paper PMC6251626

B1: wt-Alp14-dimer (S. pombe Alp14 residues 1-690) (domain or fragment)
chain: MSQDQEEDYSKLPLESRIVHKVWKVRLSAYEECSKSFSLSADGSDNCFELWNNQSELWKSVLTDSNVAAQEAGTAAFVAYCRFSDPSHLLKAREISVLSISEKCLTSPRAGTRENALEALMLLVEADSAAPVIESIIPSLSARSPKVIASNVAAIASLVEQFGAKVIPSKMIIPHISNLFGHADKNVRKEASRLTVNIYRWTGDPLKDLLFKDLRPVQTKELESLFAELPTEPPKQTRFLKSQQPTSEPNVETQVEEQPALENEESEPEPSDDQFDLVEEVDVLPNVDPNLETLMASSKWKDRKEALDKLLPVLSQPKIKDNDFFNLVAILTKSVSKDANIMVVINAAHCIQAMAKGLRSNFSKYASTSINALLERSKEKKANVIESLSSAMDAVLATSSLDDLAELIASFAGNKNPQIKSSCFSLFSRSFSNMTSLPSKFTVDTCAKACVPGVSDTFEPVRSAAAEALGVLMKLVGERAINQYLSPLDDIRKSKIRSFYETATVKAKAPTKKSKVKPSKQEESKVVVPSNAKAVKKSVVPSSPVVPSPRKATNKSLSMDVSKGNAFENGPLLPRPTTRPVSRGLSRGTSSSLQQKVKASTPLNSGALNETVQNLKNMELDDPAPQPAKHSRVDRYEHPKVLEDNDSTISSLESLKRENEELREQLKVEHEENISMQKQLSELKGELNTL
B2: isolated TOG1 domain of Alp14 (residues 1-270) (domain or fragment)
chain: MSQDQEEDYSKLPLESRIVHKVWKVRLSAYEECSKSFSLSADGSDNCFELWNNQSELWKSVLTDSNVAAQEAGTAAFVAYCRFSDPSHLLKAREISVLSISEKCLTSPRAGTRENALEALMLLVEADSAAPVIESIIPSLSARSPKVIASNVAAIASLVEQFGAKVIPSKMIIPHISNLFGHADKNVRKEASRLTVNIYRWTGDPLKDLLFKDLRPVQTKELESLFAELPTEPPKQTRFLKSQQPTSEPNVETQVEEQPALENEESEPEP
B3: isolated TOG2 domain of Alp14 (residues 320-510) (domain or fragment)
chain: KDNDFFNLVAILTKSVSKDANIMVVINAAHCIQAMAKGLRSNFSKYASTSINALLERSKEKKANVIESLSSAMDAVLATSSLDDLAELIASFAGNKNPQIKSSCFSLFSRSFSNMTSLPSKFTVDTCAKACVPGVSDTFEPVRSAAAEALGVLMKLVGERAINQYLSPLDDIRKSKIRSFYETATVKAKAP
B4: wt-Alp14-monomer (S. pombe Alp14 residues 1-510) (domain or fragment)
chain: MSQDQEEDYSKLPLESRIVHKVWKVRLSAYEECSKSFSLSADGSDNCFELWNNQSELWKSVLTDSNVAAQEAGTAAFVAYCRFSDPSHLLKAREISVLSISEKCLTSPRAGTRENALEALMLLVEADSAAPVIESIIPSLSARSPKVIASNVAAIASLVEQFGAKVIPSKMIIPHISNLFGHADKNVRKEASRLTVNIYRWTGDPLKDLLFKDLRPVQTKELESLFAELPTEPPKQTRFLKSQQPTSEPNVETQVEEQPALENEESEPEPSDDQFDLVEEVDVLPNVDPNLETLMASSKWKDRKEALDKLLPVLSQPKIKDNDFFNLVAILTKSVSKDANIMVVINAAHCIQAMAKGLRSNFSKYASTSINALLERSKEKKANVIESLSSAMDAVLATSSLDDLAELIASFAGNKNPQIKSSCFSLFSRSFSNMTSLPSKFTVDTCAKACVPGVSDTFEPVRSAAAEALGVLMKLVGERAINQYLSPLDDIRKSKIRSFYETATVKAKAP

Legend:
[1] = target: DRP-bound αβ-tubulin (1:1 complex of porcine αβ-tubulin and DARPin D1) (porcine) (UniProt P02550); test: SEC; quantitative SEC (Superdex 200 10/300) with SDS-PAGE densitometry of fractions; 2 αβ-tubulin per Alp14 subunit, with or without DRP; 100 mM KCl, 50 mM HEPES pH 7.0, 1 mM MgCl2, 1 mM β-mercaptoethanol
[2] = target: αβ-tubulin heterodimer purified from porcine brains (porcine) (UniProt P02550); test: as above
[3] = target: αβ-tubulin heterodimer purified from porcine brains (porcine) (UniProt P02550); test: SEC-MALS; Alp14 constructs mixed with soluble αβ-tubulin (with or without DRP), Superdex 200 Increase 10/300, 80-100 mM KCl
[4] = target: DRP-bound αβ-tubulin (1:1 complex of porcine αβ-tubulin and DARPin D1) (porcine) (UniProt P02550); test: SEC; quantitative SEC (Superdex 200 10/300) with SDS-PAGE densitometry of fractions; 1 αβ-tubulin per Alp14 subunit, with or without DRP; 200 mM KCl, 50 mM HEPES pH 7.0, 1 mM MgCl2, 1 mM β-mercaptoethanol
[5] = target: αβ-tubulin heterodimer purified from porcine brains (porcine) (UniProt P02550); test: as above
[6] = target: DRP-bound αβ-tubulin (1:1 complex of porcine αβ-tubulin and DARPin D1) (porcine) (UniProt P02550); test: SEC; quantitative SEC (Superdex 200 10/300) with SDS-PAGE densitometry of fractions; 2 αβ-tubulin per Alp14 subunit, with or without DRP; 200 mM KCl, 50 mM HEPES pH 7.0, 1 mM MgCl2, 1 mM β-mercaptoethanol
[7] = target: αβ-tubulin heterodimer purified from porcine brains (porcine) (UniProt P02550); test: as above
[8] = target: DRP-bound αβ-tubulin (1:1 complex of porcine αβ-tubulin and DARPin D1) (porcine) (UniProt P02550); test: SEC; quantitative SEC (Superdex 200 10/300) with SDS-PAGE densitometry of fractions; 1 αβ-tubulin per Alp14 subunit, with or without DRP; 100 mM KCl, 50 mM HEPES pH 7.0, 1 mM MgCl2, 1 mM β-mercaptoethanol
[9] = target: αβ-tubulin heterodimer purified from porcine brains (porcine) (UniProt P02550); test: as above
[10] = target: DRP-bound αβ-tubulin (1:1 complex of porcine αβ-tubulin and DARPin D1) (porcine) (UniProt P02550); test: ITC; TOG1 or TOG2 (100-250 μM) injected into a cell with 1:1 αβ-tubulin and DRP (20-40 μM); 25°C, 50 mM HEPES pH 7.3, 100 mM KCl, 1 mM MgCl2
[11] = target: DRP-bound αβ-tubulin (1:1 complex of porcine αβ-tubulin and DARPin D1) (porcine) (UniProt P02550); test: ITC; TOG1 or TOG2 (100-250 μM) injected into a cell with 1:1 αβ-tubulin and DRP (20-40 μM); 25°C, 50 mM HEPES pH 7.3, 200 mM KCl, 1 mM MgCl2
[12] = target: DRP-bound αβ-tubulin (1:1 complex of porcine αβ-tubulin and DARPin D1) (porcine) (UniProt P02550); test: SEC-MALS; Alp14 constructs mixed with soluble αβ-tubulin (with or without DRP), Superdex 200 Increase 10/300, 80-100 mM KCl

TOG1-TOG2:αβ-tubulin molar ratio [1]	µM tubulin bound [1] [µM]	TOG1-TOG2:αβ-tubulin molar ratio [2]	µM tubulin bound [2] [µM]	stoichiometry N [3]	TOG1-TOG2:αβ-tubulin molar ratio [4]	µM tubulin bound [4] [µM]	TOG1-TOG2:αβ-tubulin molar ratio [5]	µM tubulin bound [5] [µM]	TOG1-TOG2:αβ-tubulin molar ratio [6]	µM tubulin bound [6] [µM]	TOG1-TOG2:αβ-tubulin molar ratio [7]	µM tubulin bound [7] [µM]	TOG1-TOG2:αβ-tubulin molar ratio [8]	µM tubulin bound [8] [µM]	TOG1-TOG2:αβ-tubulin molar ratio [9]	µM tubulin bound [9] [µM]	Kd [10] [nM]	Kd [11] [nM]	other results	Binder
1.89	8.33	1.61	7.11	4	0.95	4.17	0.78	3.44	1.36	6.02	1.24	5.46	0.96	4.23	0.98	4.31			stoichiometry N [1]: 4	B1
																	70	1500		B2
																	173	3250		B3
1.64	7.23	2	8.82	2	0.94	4.13	0.76	3.37	1.28	5.67	1.35	5.97	0.98	4.33	1.04	4.57			stoichiometry N [12]: 2	B4
